Data as given in patent US9371393B2, “Class I anti-CEA antibodies and uses thereof” (Immunomedics, Inc., priority 2009, dated 2016).

Legend:
[1] = target: T1, ^125I-CEA (Homo sapiens, UniProt P06731); assay: ROCHE 125I-CEA radioimmunoassay (RIA); assay type: binding; settings: 0.01 and 0.10 M NH4 acetate buffer
T1 construct: purchased ROCHE
T1 sequence (P06731 35-676): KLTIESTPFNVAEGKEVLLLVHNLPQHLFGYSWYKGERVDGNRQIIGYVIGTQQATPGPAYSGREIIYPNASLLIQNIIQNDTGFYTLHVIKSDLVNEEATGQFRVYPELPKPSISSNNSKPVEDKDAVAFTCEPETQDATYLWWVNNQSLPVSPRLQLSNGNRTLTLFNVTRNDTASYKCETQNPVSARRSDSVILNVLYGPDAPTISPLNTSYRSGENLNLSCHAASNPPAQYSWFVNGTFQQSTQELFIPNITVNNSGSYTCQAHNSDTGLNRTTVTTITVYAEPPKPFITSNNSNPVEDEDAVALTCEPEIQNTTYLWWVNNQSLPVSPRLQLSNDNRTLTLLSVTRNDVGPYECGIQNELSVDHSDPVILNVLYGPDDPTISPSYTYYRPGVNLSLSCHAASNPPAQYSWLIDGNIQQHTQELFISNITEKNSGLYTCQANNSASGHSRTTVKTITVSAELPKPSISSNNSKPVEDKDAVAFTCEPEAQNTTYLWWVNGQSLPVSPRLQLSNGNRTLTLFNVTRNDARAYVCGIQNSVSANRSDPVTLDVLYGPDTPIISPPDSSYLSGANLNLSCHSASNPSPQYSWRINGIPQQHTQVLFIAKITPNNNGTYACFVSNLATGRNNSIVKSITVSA
Experimental: Hybridoma supernatants were screened for CEA reactive antibody by the ROCHE® ^125I-CEA radioimmunoassay (RIA) in 0.01 and 0.10 M NH4 acetate buffer. Positive clones were recloned. The granulocyte reactivity of CEA-reactive MAb was determined by whole-blood indirect fluorescent flow cytometric analysis (Sharkey et al. Cancer Res., 1990, 50:2823-31). Two MAb with properties similar to those of NP-2 and NP-3, designated MN-2 and MN-6, were selected for additional development.

[2] = target: T2, CEA (Homo sapiens, UniProt P06731); assay: Competitive CEA binding against HRP-labeled murine MN-15; settings: competition with HRP-labeled murine MN-15
T2 sequence (P06731 35-676): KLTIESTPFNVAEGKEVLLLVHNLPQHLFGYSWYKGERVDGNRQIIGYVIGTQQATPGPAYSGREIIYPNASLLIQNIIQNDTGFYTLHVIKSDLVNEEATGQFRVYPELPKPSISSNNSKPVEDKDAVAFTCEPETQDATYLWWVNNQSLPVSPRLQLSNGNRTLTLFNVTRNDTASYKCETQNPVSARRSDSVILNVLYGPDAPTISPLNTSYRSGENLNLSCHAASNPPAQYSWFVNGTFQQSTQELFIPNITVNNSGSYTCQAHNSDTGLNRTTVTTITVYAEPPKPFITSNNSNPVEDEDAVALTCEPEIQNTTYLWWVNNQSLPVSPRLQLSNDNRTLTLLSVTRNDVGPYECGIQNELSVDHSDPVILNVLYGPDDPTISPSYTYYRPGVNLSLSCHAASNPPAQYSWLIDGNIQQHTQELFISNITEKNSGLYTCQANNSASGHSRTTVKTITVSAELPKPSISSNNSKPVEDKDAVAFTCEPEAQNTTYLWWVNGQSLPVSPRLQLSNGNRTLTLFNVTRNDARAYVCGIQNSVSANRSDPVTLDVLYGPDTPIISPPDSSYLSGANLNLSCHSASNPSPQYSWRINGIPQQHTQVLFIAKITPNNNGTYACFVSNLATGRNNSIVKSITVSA
Source text: To make a chimeric MN-15 antibody, the murine MN-15 variable region sequences were attached to human IgG1 constant region sequences, as described in Leung et al., Hybridoma 13:469 (1994). The sequences of the murine MN-15 VK (SEQ ID NO:9) and MN-15 VH (SEQ ID NO:10) used to construct the chimeric MN-15 (cMN-15) are shown in FIG. 2 and FIG. 3.

[3] = tested on: ZR75-30 binding to fibronectin; assay: Adhesion to extracellular matrix proteins assay, ZR75-30; assay type: cell-based, human
Experimental: Adhesion to extracellular matrix proteins assay—The assay was done using the CYTOMATRIX™ screening kit from CHEMICON® (Kit #ECM205, Temecula, Calif.). The kit contains 96-well plates with strips coated with fibronectin, vitronectin, laminin, collagen-I, or collagen-IV. Subconfluent cell cultures were used for these studies. Cells (1×10^6 cells/mol) were seeded onto coated substrate and incubated at 37° C. for 1 hour in a CO2 incubator in PBS containing Ca^2+/Mg^2+ (200 μL per well). Adherent cells were fixed and stained. The plate was washed to remove unadhered cells and stained with 100 μL per well of MTS (Cell Titer Aq 96, PROMEGA®, Madison, Wis.) for 5 minutes at room temperature. Excess stain was removed with three PBS washes. Solubilization buffer [100 μL of a 50:50 mixture of 0.1 mol/L NaH2PO4 (pH 4.5) and 50% ethanol] was added to each well. Relative attachment was determined using absorbance readings (A540 nm-A570 nm).

[4] = tested on: MCF-7 cells adhesion to HUVEC; assay: Endothelial cell adhesion assay, MCF-7; assay type: cell-based, human
Experimental: (§1) Endothelial cell adhesion assay—Human umbilical vein endothelial cells (HUVEC; Cambrex, San Diego, Calif.) were grown in collagen-coated dishes in EGM Media in a humidified atmosphere with 5% CO2 at 37° C. At passages 2 to 5, cells were plated at a density of 4×10^4 cells per well in 96-well plates 24 hours before the assay. Interleukin-1β (IL-1β, 1 ng/mol) was added 4 hours before the assay. At the start of the study, the medium with the IL-1β was removed and fresh DMEM with 1% bovine serum albumin (BSA) added and incubated for 30 minutes. Fresh medium without antibodies or with 10 μg/mol of MN-15 Fab′, MN-3 Fab′, or Ag8 Fab′ was added. Tumor cells (1×10^6 cells/mol) prelabeled overnight with ^3H-thymidine (100 μL per well using 1.0 μCi/mL) were added to HUVEC cultures and incubated for 30 minutes at 37° C. with rotation in medium with 20% FBS. Samples were washed thrice with PBS to remove unattached cells. Attached cells were solubilized with 0.1 N NaOH and radioactivity was measured in a β scintillation counter. The cpm attached/total cpm added (attaching potential) was determined.

[5] = tested on: CaPAN-1 cells; assay: Collagen-based invasion assay, CaPAN-1; assay type: cell-based, human; settings: 10% FBS chemoattractant, 72-hour incubation
Experimental: Collagen-based invasion assay—The assay was done using CHEMICON® Kit (#ECM551, MILLIPORE®, Billerica, Mass.). Tumor cells at 80% confluence and were serum-starved for 18 to 24 hours before the assay was used. Cells were harvested with 5 mol of 2 mmol/L EDTA/PBS per 100-mm dish and incubated at 37° C. for 5 to 15 minutes. Cells were collected into 10 to 20 mol of quenching medium (serum-free DMEM containing 5% BSA) to inactivate trypsin/EDTA from the harvesting buffer. Cells were pelleted, resuspended in quenching medium (1×10^6 cells/mol), and appropriate antibody Fabs were added to individual cell aliquots. Cell invasion potential was determined as follows. Baseline invasion and invasion in the presence of a chemoattractant (10% FBS) were measured after a 72-hour incubation period at 37° C. in a 5% CO2 incubator. The bottom side of the collagen-coated polycarbonate membrane insert of the invasion chamber was placed in 400 μL of cell stain for 20 minutes at room temperature and washed. The dye was extracted and transferred into a 96-well microtiter plate for colorimetric measurements (A560 nm).

[6] = tested on: HT-29 cells adhesion to HUVEC; assay: Endothelial cell adhesion assay, HT-29; assay type: cell-based, human
Experimental: as §1

B1: MN-15: murine Class I anti-CEA MAb, IgG1 kappa, binds A1B1 domain of CEACAM5 and CEACAM6 (antibody, V domains shown)
VL: DIQLTQSPAIMSASPGEKVTMTCSASSRVSYIHWYQQKSGTSPKRWIYGTSTLASGVPARFSGSGSGTSYSLTISSMEAEDAATYYCQQWSYNPPTFGAGTKLELKR
VH: EVRLVESGGGLVQGPGSLRLSCAASGFALTDYYMSWVRQSPGKTLEWLGFIANKANGHTTDYSPSVKGRFTISRDNSQTILYLQMNTLRTEDSATYYCARDMGIRWNFDVWGQGTTVTVSS
- ion sensitivity of CEA binding / reactivity with ion-sensitive CEA determinant [1]: binding to epitopes of the ion-sensitive CEA determinant
- dissociation constant [2]: nanomolar range
- effect on binding to fibronectin [3]: not affecting the binding

B2: MN-15 Fab′: monovalent Fab′ fragment of murine MN-15 (antibody, V domains shown)
VL: DIQLTQSPAIMSASPGEKVTMTCSASSRVSYIHWYQQKSGTSPKRWIYGTSTLASGVPARFSGSGSGTSYSLTISSMEAEDAATYYCQQWSYNPPTFGAGTKLELKR
VH: EVRLVESGGGLVQGPGSLRLSCAASGFALTDYYMSWVRQSPGKTLEWLGFIANKANGHTTDYSPSVKGRFTISRDNSQTILYLQMNTLRTEDSATYYCARDMGIRWNFDVWGQGTTVTVSS
- decrease in adhesion [4]: 41%
- reduction in cell invasion [5]: 73%
- decrease in adhesion [6]: 48%
